Assay results published in publication PMC7078158, “Enzymes Catalyzing Crotonyl-CoA Conversion to Acetoacetyl-CoA During the Autotrophic CO2 Fixation in Metallosphaera sedula” (Frontiers in Microbiology, 2020).

Tests used:
Type in all cases: biochemical, Metallosphaera sedula
[1] = substrate: C=C(C)C(=O)SCCNC(=O)CCNC(=O)[C@H](O)C(C)(C)COP(=O)(O)OP(=O)(O)OC[C@H]1O[C@@H](n2cnc3c(N)ncnc32)[C@H](O)[C@@H]1OP(=O)(O)O; experiment: UHPLC, 3-hydroxy-2-methylpropionyl-CoA formation; settings: hydratase reaction, 100 mM Tris-HCl pH 7.8, 65 °C, apparent Km
Text: UHPLC, 3-hydroxy-2-methylpropionyl-CoA formation on crotonyl-CoA hydratase Msed_0384

[2] = substrate: C[C@H](O)CC(=O)SCCNC(=O)CCNC(=O)[C@H](O)C(C)(C)COP(=O)(O)OP(=O)(O)OC[C@H]1O[C@@H](n2cnc3c(N)ncnc32)[C@H](O)[C@@H]1OP(=O)(O)O; experiment: Ccr-coupled dehydratase assay, UHPLC; settings: dehydratase reaction, 100 mM Tris-HCl pH 7.8, 42 °C, 1 mM NADPH and NaHCO3 for coupling enzyme, apparent Km
Text: Ccr-coupled dehydratase assay, UHPLC on crotonyl-CoA hydratase Msed_0384

[3] = substrate: CCCCC/C=C/C(=O)SCCNC(=O)CCNC(=O)[C@H](O)C(C)(C)COP(=O)(O)OP(=O)(O)OC[C@H]1O[C@@H](n2cnc3c(N)ncnc32)[C@H](O)[C@@H]1OP(=O)(O)O; experiment: UHPLC, 3-hydroxyoctanoyl-CoA formation; settings: hydratase reaction, 100 mM Tris-HCl pH 7.8, 65 °C, apparent Km
Text: UHPLC, 3-hydroxyoctanoyl-CoA formation on crotonyl-CoA hydratase Msed_0384

[4] = substrate: C=CC(=O)SCCNC(=O)CCNC(=O)[C@H](O)C(C)(C)COP(=O)(O)OP(=O)(O)OC[C@H]1O[C@@H](n2cnc3c(N)ncnc32)[C@H](O)[C@@H]1OP(=O)(O)O; experiment: UHPLC, 3-hydroxypropionyl-CoA formation; settings: hydratase reaction, 100 mM Tris-HCl pH 7.8, 65 °C, apparent Km
Text: UHPLC, 3-hydroxypropionyl-CoA formation on crotonyl-CoA hydratase Msed_0384

[5] = substrate: C/C=C/C(=O)SCCNC(=O)CCNC(=O)[C@H](O)C(C)(C)COP(=O)(O)OP(=O)(O)OC[C@H]1O[C@@H](n2cnc3c(N)ncnc32)[C@H](O)[C@@H]1OP(=O)(O)O; experiment: UHPLC, 3-hydroxybutyryl-CoA formation; settings: hydratase reaction, 100 mM Tris-HCl pH 7.8, 65 °C, apparent Km
Text: UHPLC, 3-hydroxybutyryl-CoA formation on crotonyl-CoA hydratase Msed_0384

B1: crotonyl-CoA hydratase Msed_0384 (Metallosphaera sedula DSM 5348) (protein)
chain: MRTVIVEKGDVGIIRLNRPEKLNAINMEMVYDLVEALNELKSQVRAVIITGNGKAFSAGADVKEMLDMSIEQVTREGHMPLWDALRGFRKPVIAALNGVAAGGGLELAMACDMIVAGESARLGQPEINLGIIPGAGGTQRLTRTVGKYRAMEMVLTGRLITAWDAYRMGLVTKVVPDEALIPEAMRLAREITGKSGFAVELGKEAVNRALDTLLQQGLDLERRNFYVTLVSQDGREGMKAFLEKRKPEWKT
notes: full-length, N-terminal His10-tag (pET16b), recombinant in E. coli Rosetta 2 (DE3)
With B1 the Km [1] was 70 ± 30 µM, the Km [2] was 50 ± 10 µM and the Km [3] was 500 ± 60 µM. For the same protein, the Km [4] was 180 ± 30 µM and the Km [5] was 220 ± 20 µM.
